Test [1] has as its target T1, B-domain deleted factor VIII (FVIII) (human, UniProt P00451 20-759; P00451 1668-2351).
T1 construct: also called wt FVIII; wild type FVIII
T1 sequence 1: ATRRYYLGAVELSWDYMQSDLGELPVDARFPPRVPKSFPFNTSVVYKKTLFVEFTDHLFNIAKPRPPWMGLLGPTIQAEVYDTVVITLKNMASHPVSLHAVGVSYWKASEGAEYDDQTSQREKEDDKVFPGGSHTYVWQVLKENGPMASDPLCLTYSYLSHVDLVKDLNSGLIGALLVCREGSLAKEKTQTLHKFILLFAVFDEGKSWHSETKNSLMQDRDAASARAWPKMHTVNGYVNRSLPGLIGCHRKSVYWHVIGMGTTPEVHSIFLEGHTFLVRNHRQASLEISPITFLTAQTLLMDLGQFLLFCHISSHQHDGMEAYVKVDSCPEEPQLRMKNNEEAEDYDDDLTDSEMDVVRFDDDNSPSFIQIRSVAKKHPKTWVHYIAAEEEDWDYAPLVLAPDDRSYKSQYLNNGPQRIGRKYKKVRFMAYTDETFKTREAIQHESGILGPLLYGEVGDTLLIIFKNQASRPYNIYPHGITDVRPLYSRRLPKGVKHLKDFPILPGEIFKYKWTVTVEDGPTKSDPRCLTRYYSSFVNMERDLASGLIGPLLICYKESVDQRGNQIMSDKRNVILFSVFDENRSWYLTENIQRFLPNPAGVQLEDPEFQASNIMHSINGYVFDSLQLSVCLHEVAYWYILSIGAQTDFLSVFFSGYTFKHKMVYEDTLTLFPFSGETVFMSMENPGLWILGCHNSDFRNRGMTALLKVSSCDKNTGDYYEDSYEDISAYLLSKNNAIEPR
T1 sequence 2: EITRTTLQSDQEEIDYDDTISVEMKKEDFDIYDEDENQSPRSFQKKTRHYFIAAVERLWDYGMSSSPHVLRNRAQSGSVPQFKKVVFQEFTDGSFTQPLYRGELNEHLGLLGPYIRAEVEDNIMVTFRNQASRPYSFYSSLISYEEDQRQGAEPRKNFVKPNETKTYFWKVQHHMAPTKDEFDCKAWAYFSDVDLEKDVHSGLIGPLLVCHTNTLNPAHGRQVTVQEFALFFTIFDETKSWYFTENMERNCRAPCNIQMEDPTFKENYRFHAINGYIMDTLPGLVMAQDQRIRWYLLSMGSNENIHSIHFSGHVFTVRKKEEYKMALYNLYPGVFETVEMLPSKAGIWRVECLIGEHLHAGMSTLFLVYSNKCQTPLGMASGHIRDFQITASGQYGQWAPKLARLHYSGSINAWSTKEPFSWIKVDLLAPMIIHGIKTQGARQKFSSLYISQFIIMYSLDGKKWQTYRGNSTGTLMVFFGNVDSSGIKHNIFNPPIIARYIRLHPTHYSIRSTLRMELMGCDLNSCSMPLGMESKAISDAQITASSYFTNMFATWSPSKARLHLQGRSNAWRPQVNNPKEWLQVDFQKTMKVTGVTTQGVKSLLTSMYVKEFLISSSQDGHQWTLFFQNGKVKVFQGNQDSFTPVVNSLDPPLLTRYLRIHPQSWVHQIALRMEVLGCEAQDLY
Put plainly: SPR (Biacore 3000), antibody captured by rabbit anti-mouse IgG, FVIII as analyte; Kd = koff/kon. As to the method: (§1) The kinetics of FVIII binding to antibody was determined by surface plasmon resonance using a Biacore 3000 instrument. Each antibody was captured to a level of 70-110 RU in flow cell 2 of a CM5 chip coated with rabbit anti-mouse IgG antibody (GE Healthcare, Uppsala, Sweden) as described by the manufacturer. Kinetic analysis was performed at 25° C. at a flow rate of 30 μl/min in running buffer using flow cell 1 as reference. Serial two-fold dilutions of FVIII from 0 to 40 nM were analyzed. Following 3-min equilibration of the flow cells in running buffer, 150 μl FVIII were injected. The dissociation phase lasted 9 min and regeneration was performed with a 3-min pulse of 10 mM glycine, pH 1.7. The obtained reference-subtracted sensorgrams fitted well to a 1:1 Langmuir binding model which allowed for estimation of association (Kₒₙ) and dissociation (koff) rate constants and the equilibrium dissociation constant (Kd=koff/kₒₙ) using BIAevaluation 4.1 software (GE Healthcare, Uppsala, Sweden).
TABLE 2 Surface plasmon resonance analysis of the kinetics of FVIII binding to select antibodies. The listed antibodies were captured by immobilized rabbit anti-mouse IgG antibody and binding to FVIII were tested in concentrations ranging from 0 to 40 nM. […] The dissociation constrant Kd was calculated as koff/kₒₙ. […]
Background: Surface plasmon resonance follows binding to a sensor surface in real time, without labels.

In test [2] the target is T1, B-domain deleted factor VIII (FVIII). Put plainly: cell-based or functional assay.
Test [3] shares this target. As to the kind of experiment: SPR (Biacore 3000), antibody captured by rabbit anti-mouse IgG, FVIII 0-40 nM as analyte, 25 C, 1:1 Langmuir fit. As to the method:
as §1
TABLE 2 Surface plasmon resonance analysis of the kinetics of FVIII binding to select antibodies. The listed antibodies were captured by immobilized rabbit anti-mouse IgG antibody and binding to FVIII were tested in concentrations ranging from 0 to 40 nM. Binding curves fitted well to a 1:1 Langmuir binding isotherm which provided estimates of association (kₒₙ) and dissociation (koff) rate constants. The dissociation constrant Kd was calculated as koff/kₒₙ. Standard errors obtained from the fits are shown.

B1: anti-FVIII 4F143 (antibody, mouse IgG1, V domains shown)
VH: QIQFVQSGPELKKPGETVKISCKASGYTFTNYGMNWVKQAPGKGLKWMGWINSYTGEPTYADDFKGRFAFSLETSASTAYLQINNLKNEDTATYFCARGASYAMDYWGQGTSVTVSS
VL: DVQITQSPSYLAASPGETITINCRASKSISKYLAWYQEKPVKTNKLLIYSGSTLQSGIPSRFSGSGSGTDFTLTISSLEPEDFAMYYCQQHYEYPLTFGAGTKLELKR
notes: Mouse monoclonal from hybridoma, murine IgG1 heavy chain and kappa light chain; also called Anti-FVIIIa 4F143
Usually Kd stands for the equilibrium constant for the complex coming apart. Higher therefore signals weaker binding. A word on the koff: it is the first-order rate constant of dissociation. A low value points to a long-lived complex. The term kon denotes the rate constant with which the complex forms. Consider B1, for which the dissociation constant Kd in test [1] worked out at 3.5 nM. Besides, in test [2], the “Maximal level of thrombin generation, fold-increase compared to FVIII” value is 1.7 fold and the “Rate of thrombin generation, fold-increase compared to FVIII” value was found to be 1.8 fold. Further, in test [3], the koff was 0.000849 s⁻¹ and the kon turned out to be 244000 M⁻¹ s⁻¹.

B2: anti-FVIII 4F50 (antibody, mouse IgG1, V domains shown)
VH: QIQFVQSGPELKKPGETVKISCKASGYTFTNYGMNWVKQAPGKGLKWMGWINSYTGEPTYADDFKGRFDFSLETSASTAYLQINNLKNEDTATYFCARGASYAMDHWGQGTSVTVSS
VL: DVQITQSPSYLAASPGETISINCRASKSISKYLAWYQEKPVKTNKLLIYSGSTLQSGIPSRFSGSGSGTDFTLTISSLEPEDFAMYYCQQHYEYPLTFGAGTKLELKR
notes: Mouse monoclonal, murine IgG1 heavy chain and kappa light chain; also called Anti-FVIIIa 4F50
Take B2: in test [1], binding was characterised by a dissociation constant (Kd) of 5.6 nM. In test [3], this molecule registered a koff of 0.00106 s⁻¹ and a kon of 190000 M⁻¹ s⁻¹.

For the origin of these results see patent US20130266576A1 (Novo Nordisk, published 2013).
